Assay results taken from article PMC10352297, “Determining the structure of the bacterial voltage-gated sodium channel NaChBac embedded in liposomes by cryo electron tomography and subtomogram averaging” (Scientific Reports, 2023).

Target: the molecule itself
Assay: cryo-EM structure; cryo electron tomography and subtomogram averaging of NaChBac in proteoliposomes (E. coli polar lipid extract, lipid-to-protein 2:1 wt/wt); polarized membrane, [K+]in 150 mM, [K+]out 3 mM, 1 uM valinomycin, -100 mV; 25 mM HEPES pH 7.0; 3116 particles, C1, 16.3 A

B1: His6-GFP^A206K-NaChBac (natural protein, Bacillus halodurans, UniProt Q9KCR8 1-274, looked up)
chain: MKMEARQKQNSFTSKMQKIVNHRAFTFTVIALILFNALIVGIETYPRIYADHKWLFYRIDLVLLWIFTIEIAMRFLASNPKSAFFRSSWNWFDFLIVAAGHIFAGAQFVTVLRILRVLRVLRAISVVPSLRRLVDALVMTIPALGNILILMSIFFYIFAVIGTMLFQHVSPEYFGNLQLSLLTLFQVVTLESWASGVMRPIFAEVPWSWLYFVSFVLIGTFIIFNLFIGVIVNNVEKAELTDNEEDGEADGLKQEISALRKDVAELKSLLKQSK
notes: NaChBac, prokaryotic voltage-gated sodium channel from Bacillus halodurans; cDNA for full-length NaChBac in pET21a; the tagged subunit is 55 kDa; the channel without tags is about 120 kDa as a tetramer; also called his-GFP-NaChBac; his-tagged GFP^A206K-NaChBac; source: E. coli C41(DE3), purified (Ni-NTA, SEC in DDM), reconstituted into liposomes of E. coli polar lipid extract; not shown: His6, …
With B1 the “stoichiometry N” value was 4.
